Target: T1, human PSGL-1 (human, UniProt Q14242 42-412)
T1 sequence: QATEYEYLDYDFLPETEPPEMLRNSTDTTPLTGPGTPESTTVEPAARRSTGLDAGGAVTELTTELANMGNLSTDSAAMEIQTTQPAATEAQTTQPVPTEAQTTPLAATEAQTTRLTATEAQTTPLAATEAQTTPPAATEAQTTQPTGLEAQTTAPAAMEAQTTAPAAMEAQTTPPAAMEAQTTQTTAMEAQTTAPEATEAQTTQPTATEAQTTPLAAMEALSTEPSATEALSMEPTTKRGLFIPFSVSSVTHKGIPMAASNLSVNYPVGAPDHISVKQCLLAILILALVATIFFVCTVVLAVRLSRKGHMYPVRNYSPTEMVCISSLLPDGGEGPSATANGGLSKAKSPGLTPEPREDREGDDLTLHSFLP
Experiment: cell-based or functional assay

EC50 15A7H, single treatment; apoptosis of activated T cells (Annexin V/PI, 48 h, with cross-linker), donor N084, ratio block 1.1:1: 0.328 µg/mL
EC50 15A7H, single treatment; apoptosis of activated T cells (Annexin V/PI, 48 h, with cross-linker), donor N084, ratio block 3.3:1: 0.328 µg/mL
EC50 15A7H, single treatment; apoptosis of activated T cells (Annexin V/PI, 48 h, with cross-linker), donor N089, ratio block 1.1:1: 0.816 µg/mL
EC50 15A7H, single treatment; apoptosis of activated T cells (Annexin V/PI, 48 h, with cross-linker), donor N089, ratio block 3.3:1: 0.865 µg/mL
EC50 15A7H, single treatment; apoptosis of activated T cells (Annexin V/PI, 48 h, with cross-linker), donor N102, ratio block 0.37:1: 0.959 µg/mL
EC50 15A7H, single treatment; apoptosis of activated T cells (Annexin V/PI, 48 h, with cross-linker), donor N102, ratio block 1.1:1: 0.959 µg/mL
EC50 15A7H, single treatment; apoptosis of activated T cells (Annexin V/PI, 48 h, with cross-linker), donor N102, ratio block 3.3:1: 0.959 µg/mL
EC50 15A7H, single treatment; apoptosis of activated T cells (Annexin V/PI, 48 h, with cross-linker), donor N103, ratio block 0.37:1: 1.4 µg/mL
EC50 15A7H, single treatment; apoptosis of activated T cells (Annexin V/PI, 48 h, with cross-linker), donor N103, ratio block 1.1:1: 1.4 µg/mL
EC50 15A7H, single treatment; apoptosis of activated T cells (Annexin V/PI, 48 h, with cross-linker), donor N103, ratio block 3.3:1: 1.4 µg/mL
B1: anti-PSGL-1 antibody 15A7H (antibody, human IgG4 S228P, kappa, V domains shown)
VH: EVQLVESGGGLVQPGGSLRLSCAASGFTFSSFGMHWVRQAPGKGLEWVAYINGGSSTIFYANAVKGRFTISRDNAKNTLYLQMNSLRAEDTAVYYCARYASYGGGAMDYWGQGTLVTVSS
VL: DIQMTQSPSSLSASVGDRVTITCRSSQSIVHNDGNTYFEWYQQKPGKAPKLLIYKVSNRFSGVPSRFSGSGSGTHFTLTISSLQPEDFATYYCFQGSYVPLTFGQGTKVEIKR
